The values that follow come from article PMC4802922.

For this data set, the target named is Dnmt3a-CD wt;Dnmt3L (Mus musculus;) (UniProt O88508+Q9CWR8). Nature of the data set: 2-aminopurine fluorescence (base flipping). The note with it: 0.1 mM AdoMet; N15 of strand 1 = 2-aminopurine (replaces target C); C15 of strand 2 = 5-methylcytosine; Fluorescence polarization: 10 nM duplex, 0.1 mM AdoHcy, Dnmt3a reaction buffer (composition not given), 25 °C; enzyme up to 600-800 nM. A general note: Polarisation of emitted light reports the rotation of a fluorescent probe.
Sequence of Dnmt3a-CD wt;Dnmt3L (Mus musculus;) (O88508 608-908, chain 1 of 2): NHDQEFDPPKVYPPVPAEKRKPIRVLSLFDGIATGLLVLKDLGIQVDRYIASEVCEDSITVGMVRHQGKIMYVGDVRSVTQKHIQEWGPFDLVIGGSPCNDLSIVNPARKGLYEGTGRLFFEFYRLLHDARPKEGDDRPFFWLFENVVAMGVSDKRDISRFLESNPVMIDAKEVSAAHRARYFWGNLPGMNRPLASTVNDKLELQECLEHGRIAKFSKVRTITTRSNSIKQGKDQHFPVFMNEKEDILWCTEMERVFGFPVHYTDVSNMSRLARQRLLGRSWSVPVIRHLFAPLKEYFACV
Sequence of Dnmt3a-CD wt;Dnmt3L (Mus musculus;) (Q9CWR8 whole entry, chain 2 of 2): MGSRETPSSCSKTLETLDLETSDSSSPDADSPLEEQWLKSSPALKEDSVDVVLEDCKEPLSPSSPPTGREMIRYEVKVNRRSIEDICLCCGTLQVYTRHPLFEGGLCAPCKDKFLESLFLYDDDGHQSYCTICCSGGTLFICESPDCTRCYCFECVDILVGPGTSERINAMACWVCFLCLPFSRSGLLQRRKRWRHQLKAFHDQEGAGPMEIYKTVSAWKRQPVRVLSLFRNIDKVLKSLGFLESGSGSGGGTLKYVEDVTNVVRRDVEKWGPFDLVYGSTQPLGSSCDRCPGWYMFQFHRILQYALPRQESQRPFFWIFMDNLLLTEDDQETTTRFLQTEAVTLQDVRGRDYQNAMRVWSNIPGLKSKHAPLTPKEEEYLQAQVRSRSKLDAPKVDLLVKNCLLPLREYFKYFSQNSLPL

“CTGAATACTACTTGNGCTCTCTAACCTGAT / ATCAGGTTAGAGAGCGCAAGTAGTATTCAG [GBGC/CGMG]” showed a binding signal of 100%.
